Measurements from the supplement of paper PMC9112550, “Optimization of the antimicrobial peptide Bac7 by deep mutational scanning” (BMC Biology, 2022).

test system: Escherichia coli TOP10; experiment: shrunken log2 fold change of peptide-encoding DNA abundance (4.5 h post-induction vs induction); higher = less antimicrobial activity (less host growth inhibition); details: time post-induction: 4.5 h; library: site-saturation at positions 5, 18, 19, 20
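Further: peptides expressed intracellularly from a pBAD plasmid library in pooled LB shake-flask culture, induced with 0.3% L-arabinose, DNA abundance read by NGS, three biological replicates, DESeq2 with apeglm shrinkage.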

| Sequence | shrunken log2 fold change |
| --- | --- |
| RRIRSRPPRLPRPRPRPLDRPRP | 0.218 |
| RRIRSRPPRLPRPRPRPMVAPRP | 0.0774 |
| RRIRHRPPRLPRPRPRPFRIPRP | -0.127 |
| RRIRYRPPRLPRPRPRPYSCPRP | -0.344 |
| RRIRRRPPRLPRPRPRPTAYPRP | 0.676 |
| RRIRVRPPRLPRPRPRPIVPPRP | -0.349 |
| RRIRTRPPRLPRPRPRPAKLPRP | 0.108 |
| RRIRLRPPRLPRPRPRPFPKPRP | -0.103 |
| RRIRHRPPRLPRPRPRPPFKPRP | 0.332 |
| RRIRNRPPRLPRPRPRPDYRPRP | -0.668 |
| RRIRIRPPRLPRPRPRPMHKPRP | -0.431 |
| RRIRCRPPRLPRPRPRPSCKPRP | -0.685 |
| RRIRQRPPRLPRPRPRPNIYPRP | -0.153 |
| RRIRKRPPRLPRPRPRPRDMPRP | 0.0936 |
| RRIRGRPPRLPRPRPRPTQQPRP | 0.94 |
| RRIRKRPPRLPRPRPRPNGNPRP | -0.146 |
| RRIRTRPPRLPRPRPRPEPTPRP | 0.347 |
| RRIRMRPPRLPRPRPRPMINPRP | -0.00763 |
| RRIRTRPPRLPRPRPRPSVYPRP | -0.389 |
| RRIRHRPPRLPRPRPRPWVRPRP | 0.0215 |
| RRIRGRPPRLPRPRPRPHMCPRP | -0.01 |
| RRIRLRPPRLPRPRPRPIWMPRP | 0.0146 |

| Sequence | shrunken log2 fold change |
| --- | --- |
| RRIRERPPRLPRPRPRPFWDPRP | 0.029 |
| RRIRERPPRLPRPRPRPASHPRP | -0.34 |
| RRIRPRPPRLPRPRPRPQTSPRP | 0.163 |
| RRIRWRPPRLPRPRPRPQNEPRP | -0.18 |
| RRIRHRPPRLPRPRPRPNKSPRP | -0.252 |
| RRIRGRPPRLPRPRPRPQQYPRP | -0.107 |
| RRIRFRPPRLPRPRPRPTEQPRP | -0.0361 |
| RRIRKRPPRLPRPRPRPMFDPRP | 0.166 |
| RRIRVRPPRLPRPRPRPIAKPRP | 0.391 |
| RRIRPRPPRLPRPRPRPTKVPRP | -0.0777 |
| RRIRVRPPRLPRPRPRPHVEPRP | 0.0127 |
| RRIRRRPPRLPRPRPRPFVEPRP | -0.142 |
| RRIRGRPPRLPRPRPRPYIRPRP | -0.111 |
| RRIRWRPPRLPRPRPRPLKSPRP | 0.183 |
| RRIRQRPPRLPRPRPRPFLFPRP | -0.288 |
| RRIRKRPPRLPRPRPRPQRKPRP | 0.71 |
| RRIRCRPPRLPRPRPRPWPCPRP | 1.63 |
| RRIRYRPPRLPRPRPRPQENPRP | -0.00441 |
| RRIRHRPPRLPRPRPRPCDFPRP | -0.0501 |
| RRIRPRPPRLPRPRPRPMACPRP | -0.161 |
| RRIRTRPPRLPRPRPRPHKSPRP | 0.119 |
| RRIRTRPPRLPRPRPRPNTFPRP | -0.668 |

| Sequence | shrunken log2 fold change |
| --- | --- |
| RRIRHRPPRLPRPRPRPSWFPRP | -0.408 |
| RRIRQRPPRLPRPRPRPGPGPRP | 0.507 |
| RRIRVRPPRLPRPRPRPYSSPRP | -0.644 |
| RRIRGRPPRLPRPRPRPFWCPRP | -0.0505 |
| RRIRKRPPRLPRPRPRPRVTPRP | 0.138 |
| RRIRLRPPRLPRPRPRPCFPPRP | -0.206 |
| RRIRYRPPRLPRPRPRPVTPPRP | -0.118 |
| RRIRFRPPRLPRPRPRPRLYPRP | -0.014 |
| RRIRPRPPRLPRPRPRPHFLPRP | -0.168 |
| RRIRYRPPRLPRPRPRPCAMPRP | 0.0865 |
| RRIRYRPPRLPRPRPRPDWRPRP | 0.22 |
| RRIRSRPPRLPRPRPRPTYSPRP | -0.453 |
| RRIRARPPRLPRPRPRPCPIPRP | -0.244 |
| RRIRCRPPRLPRPRPRPCDVPRP | -0.0285 |
| RRIRKRPPRLPRPRPRPTWNPRP | 0.197 |
| RRIRRRPPRLPRPRPRPLHEPRP | -0.0162 |
| RRIRSRPPRLPRPRPRPPYGPRP | -0.401 |
| RRIRTRPPRLPRPRPRPVCMPRP | -0.17 |
| RRIRNRPPRLPRPRPRPCYCPRP | -0.00992 |
| RRIRERPPRLPRPRPRPKHKPRP | -0.344 |
| RRIRVRPPRLPRPRPRPQTSPRP | -0.0971 |
| RRIRWRPPRLPRPRPRPYGNPRP | -0.338 |

| Sequence | shrunken log2 fold change |
| --- | --- |
| RRIRVRPPRLPRPRPRPDFTPRP | -0.282 |
| RRIRMRPPRLPRPRPRPGNEPRP | 1.05 |
| RRIRKRPPRLPRPRPRPTFQPRP | 0.05 |
| RRIRGRPPRLPRPRPRPWCWPRP | 0.682 |
| RRIRFRPPRLPRPRPRPWTMPRP | 0.0794 |
| RRIRQRPPRLPRPRPRPVTMPRP | -0.0817 |
| RRIRYRPPRLPRPRPRPHTIPRP | -0.852 |
| RRIRERPPRLPRPRPRPEKRPRP | -0.0657 |
| RRIRDRPPRLPRPRPRPVQQPRP | -0.00151 |
| RRIRLRPPRLPRPRPRPQHDPRP | -0.0854 |
| RRIRMRPPRLPRPRPRPWDWPRP | 0.794 |
| RRIRMRPPRLPRPRPRPFTLPRP | -0.0107 |
| RRIRWRPPRLPRPRPRPIHVPRP | -0.0677 |
| RRIRTRPPRLPRPRPRPFKNPRP | 0.0716 |
| RRIRNRPPRLPRPRPRPAGKPRP | -0.0122 |
| RRIRTRPPRLPRPRPRPVVAPRP | 0.418 |
| RRIRIRPPRLPRPRPRPWQQPRP | 0.0529 |
| RRIRKRPPRLPRPRPRPKVAPRP | 1.23 |
| RRIRQRPPRLPRPRPRPGPLPRP | -0.035 |
| RRIRGRPPRLPRPRPRPFQNPRP | 0.31 |
| RRIRGRPPRLPRPRPRPEAAPRP | 3.27 |
| RRIRSRPPRLPRPRPRPQDYPRP | -0.356 |

| Sequence | shrunken log2 fold change |
| --- | --- |
| RRIRKRPPRLPRPRPRPMHDPRP | 0.321 |
| RRIRKRPPRLPRPRPRPVNGPRP | 0.0996 |
| RRIRRRPPRLPRPRPRPYPSPRP | -0.305 |
| RRIRERPPRLPRPRPRPFVKPRP | -0.0102 |
| RRIRRRPPRLPRPRPRPYYTPRP | 1.46 |
| RRIRMRPPRLPRPRPRPTSLPRP | 0.546 |
| RRIRWRPPRLPRPRPRPMIYPRP | -0.542 |
| RRIRFRPPRLPRPRPRPHEHPRP | -0.135 |
| RRIRLRPPRLPRPRPRPQQAPRP | -0.0623 |
| RRIRKRPPRLPRPRPRPPFPPRP | 0.582 |
| RRIRDRPPRLPRPRPRPFHSPRP | -0.13 |
| RRIRRRPPRLPRPRPRPNQYPRP | -0.506 |
| RRIRDRPPRLPRPRPRPAHEPRP | -0.0156 |
| RRIRRRPPRLPRPRPRPSWDPRP | -0.102 |
| RRIRIRPPRLPRPRPRPQCMPRP | -0.836 |
| RRIRKRPPRLPRPRPRPVCYPRP | 0.242 |
| RRIRWRPPRLPRPRPRPQKGPRP | -0.214 |
| RRIRYRPPRLPRPRPRPTHWPRP | 0.272 |
| RRIRMRPPRLPRPRPRPTSRPRP | 0.385 |
| RRIRERPPRLPRPRPRPWRPPRP | 0.0707 |
| RRIRYRPPRLPRPRPRPYAGPRP | -0.00131 |
